# According to article PMC4072569 (Molecular Biology of the Cell, 2014):
# B1: Blt1p-hexahistidine (natural protein, S. pombe, UniProt O74338 1-700, looked up)
# chain: MSKSAFTSKSQLKGIDGSFNDPFRQPSMNLPTPPHDDGLPSIPRSTALPNLSNRLSPYSHRNYLPIPEADSRNLEVLNSISLTTGSVVNQINKLYQRSCDNANYLQDLRSLILQTPTAEANATQVTESLNQIQKILQEASSKDREQIVQVIKELNKGNSLEVRRELGNCLAHLKKGTLNIDNALQASLQKYWKELQYFNVSKDKLLSLEESIKLLSARLEETDTPSSTHWIEINAGFKEVGDELSENFQRKQEILSGLQNNVILRTNNRKPVGSDGSNSNFNGGEEQMDSKDQEEIQDYLNSLLSVHEKDGVLLQKFHNSYVQYQKLAVALSKYENFDADKLFQQMNLAKQSNETLLQTLTEQTDQLLSFKETMDSFKFILGPSMENQALQQGILAEQQDLVAQLRDIVLRSETLAENPSNMPGSCLPGASSNTADEFTEQLNLLKNEVARLSAICPSPNSGINASVLTNADNLEKENLLLVNNNAFKVDDRSVSSVALDDHNRQLQMNVEELEGKKADLTSKINRLDKDFVKLNTTYSLLTDQVKTKQLALQEIESRVIRLEERLNMLQKLSMQPAISSSSEFVPIESHPSSSAVVPIEEPKNSIIEKKRVPHNAARNSVNLEVTLPNSKKRFSSFSGSSSKLPVRPSTALTDKRKPSWSRRLAAAIGFSSGSPEKKHVITSSDAGHQRSKSRSFSSKM
# Columns and labels:
# [1] = target: B1; experiment: pull-down
# [2] = target: the molecule itself; experiment: AUC
percent pulled down from lysate [1],Binder,stoichiometry N [2]
42%,"Mob1p-mEGFP (natural protein, S. pombe, UniProt O94360 1-210, looked up) MFGFSNKTAKTFRVRKTEAGTKHYQLRQYAEATLGSGSLMEAVKLPKGEDLNEWIAMNTMDFYTQINMLYGTITEFCTAASCPQMNAGPSYEYYWQDDKIYTKPTRMSAPDYINNLLDWTQEKLDDKKLFPTEIGVEFPKNFRKVIQQIFRRLFRIYAHIYCSHFHVMVAMELESYLNTSFKHFVFFCREFGLMDNKEYAPMQDLVDSMV",
23%,"Cdc15p-mEGFP (natural protein, S. pombe, UniProt Q09822 1-927, looked up) MEVNGVSQSEAAPYVTKSSVKFRDNFWGSEDAGMDALMSRTKSSLSVLESIDEFYAKRASIEREYASKLQELAASSADIPEVGSTLNNILSMRTETGSMAKAHEEVSQQINTELRNKIREYIDQTEQQKVVAANAIEELYQKKTALEIDLSEKKDAYEYSCNKLNSYMRQTKKMTGRELDKYNLKIRQAALAVKKMDAEYRETNELLLTVTREWIDRWTEVCDAFQHIEEYRLEFLKTNMWAYANIISTACVKDDESCEKIRLTLENTNIDEDITQMIQNEGTGTTIPPLPEFNDYFKENGLNYDIDQLISKAPSYPYSSSRPSASASLASSPTRSAFRPKTSETVSSEVVSSPPTSPLHSPVKPVSNEQVEQVTEVELSIPVPSIQEAESQKPVLTGSSMRRPSVTSPTFEVAARPLTSMDVRSSHNAETEVQAIPAATDISPEVKEGKNSENAITKDNDDIILSSQLQPTATGSRSSRLSFSRHGHGSQTSLGSIKRKSIMERMGRPTSPFMGSSFSNMGSRSTSPTKEGFASNQHATGASVQSDELEDIDPRANVVLNVGPNMLSVGEAPVESTSKEEDKDVPDPIANAMAELSSSMRRRQSTSVDDEAPVSLSKTSSSTRLNGLGYHSRNTSIASDIDGVPKKSTLGAPPAAHTSAQMQRMSNSFASQTKQVFGEQRTENSARESLRHSRSNMSRSPSPMLSRRSSTLRPSFERSASSLSVRQSDVVSPAPSTRARGQSVSGQQRPSSSMSLYGEYNKSQPQLSMQRSVSPNPLGPNRRSSSVLQSQKSTSSNTSNRNNGGYSGSRPSSEMGHRYGSMSGRSMRQVSQRSTSRARSPEPTNRNSVQSKNVDPRATFTAEGEPILGYVIALYDYQAQIPEEISFQKGDTLMVLRTQEDGWWDGEIINVPNSKRGLFPSNFVQTV",
,B1,4
22%,"Sid2p-mEGFP (natural protein, S. pombe, UniProt Q09898 1-607, looked up) MNRVNDMSPVEGDLGLQLSSEADKKFDAYMKRHGLFEPGNLSNNDKERNLEDQFNSMKLSPVASSKENYPDNHMHSKHISKLPIASPIPRGLDRSGELSYKDNNHWSDRSSTGSPRWENGSMNLSVEEMEKVVQPKVKRMATICQMFFLDHYFEQLHYLYTRKQRARLFEEQLLKEPDSRRDELVKRYNGRERVYLRKRRTRISHGDFQTITQVGQGGYGSVWLARKRDTKEIVALKIMNKSVLHKMDEIRHVLTERDILTTANSEWLVRLLYAFQDTSNIYLAMEFVPGGDFRTLLSNSGVLRDHHAKFYATEMFLAIDALHQLGYIHRDLKPENFLVGASGHIKLTDFGLSSGIISKKKIESMKIRLQEVNNVVVPERSMRERRQVFRTLLSQDPVYAHSVVGSPDYMAPEVLRGENYNHSVDYWSLGCIMYECLSGFPPFSGSNVNETWSNLKNWRKCFQRPHYDDPRDLEFNWRDDAWDFVCHCITDPKDRFCSLKQVMQHPYFSKIDWKNVRTAYRPPFVPDLNSEIDAGYFDDFTNENDMSKYKEVHEKQAAIANMVNTFNKPKRNAFIGFTFRHQKNSHPTSSSSALSSPLSAPSFGTLL",
